Test results from US7585952 (BIOTECHNOL S A, dated 2009).

B1: hERB-RNase (Erbicin fused to human pancreatic ribonuclease) (other)
chain: QVQLLQSAAEVKKPGESLKISCKGSGYSFTSYWIGWVRQMPGKGLEWMGIIYPGDSDTRYSPSFQGQVTISADKSISTAYLQWSSLKASDTAVYYCARWRDSPLWGQGTLVTVSSGGGGSGGGGSGGSALQAVVTQEPSFSVSPGGTVTLTCGLSSGSVSTSYYPSWYQQTPGQAPRTLIYSTNTRSSGVPDRFSGSILGNKAALTITGAQADDESDYYCVLYMGSGQYVFGGGTKLTVLGAAASGGPEGGSKESRAKKFQRQHMDSDSSPSSSSTYCNQMMRRRNMTQGRCKPVNTFVHEPLVDVQNVCFQEKVTCKNGQGNCYKSNSSMHITDCRLTNGSRYPNCAYRTSPKERHIIVACEGSPYVPVHFDASVEDST
B2: Ph-Erbicin (human anti-ErbB2 scFv from type A clone, displayed on phage) (scFv)
scFv: QVQLLQSAAEVKKPGESLKISCKGSGYSFTSYWIGWVRQMPGKGLEWMGIIYPGDSDTRYSPSFQGQVTISADKSISTAYLQWSSLKASDTAVYYCARWRDSPLWGQGTLVTVSSGGGGSGGGGSGGSALQAVVTQEPSFSVSPGGTVTLTCGLSSGSVSTSYYPSWYQQTPGQAPRTLIYSTNTRSSGVPDRFSGSILGNKAALTITGAQADDESDYYCVLYMGSGQYVFGGGTKLTVLG
notes: Tested as whole phage particles carrying the scFv; also called A type phage clone; clone A
B3: Erbicin (soluble human anti-ErbB2 scFv) (scFv, not shown: small tags and cut ends)
scFv: QVQLLQSAAEVKKPGESLKISCKGSGYSFTSYWIGWVRQMPGKGLEWMGIIYPGDSDTRYSPSFQGQVTISADKSISTAYLQWSSLKASDTAVYYCARWRDSPLWGQGTLVTVSSGGGGSGGGGSGGSALQAVVTQEPSFSVSPGGTVTLTCGLSSGSVSTSYYPSWYQQTPGQAPRTLIYSTNTRSSGVPDRFSGSILGNKAALTITGAQADDESDYYCVLYMGSGQYVFGGGTKLTVLGHHHHHH

Assays:
human ErbB2 receptor [1] = biological target: T1, human ErbB2 receptor (human, UniProt P04626 23-1255); assay: cell-based or functional assay
human ErbB2 receptor [2] = biological target: T1, human ErbB2 receptor; assay: cell-based or functional assay; remark: listed apart in the source
[3] = biological target: T2, EGF receptor (EGFR, ErbB1) on A431 cells (human, UniProt P00533 25-1210); assay: flow cytometry on A431 cells (EGFR at 2x10^6 receptors per cell)
T2 construct: whole, on cells; A431 cells also express ErbB2 at very low levels; also called homologous EGF receptor

Row | Binder | IC50 of inhibition of SKBR3 cell proliferation, 72 h (human ErbB2 receptor [1]) | Growth Inhibition (IC50, cfu/ml), BT-474 cells, 96 h (human ErbB2 receptor [2]) | Growth Inhibition (IC50, cfu/ml), MDA-MB453 cells, 96 h (human ErbB2 receptor [2]) | Growth Inhibition (IC50, cfu/ml), NIH 3T3 (ErbB2-trasf.) cells, 96 h (human ErbB2 receptor [2]) | Growth Inhibition (IC50, cfu/ml), SK-OV-3 cells, 96 h (human ErbB2 receptor [2]) | Growth Inhibition (IC50, cfu/ml), SKBR3 cells, 96 h (human ErbB2 receptor [2]) | binding result [3] | IC50 of inhibition of SKBR3 cell proliferation, expressed as scFv concentration in the phage preparation (human ErbB2 receptor [1]) | antitumor activity on SKBR3 cells relative to soluble Erbicin (human ErbB2 receptor [1])
1 | B1 | ~20 nM | – | – | – | – | – | – | – | –
2 | B2 | 2.8e+10 cfu/ml | 2.5e+11 cfu/ml | 1.4e+11 cfu/ml | 3.5e+11 cfu/ml | 4e+11 cfu/ml | 1.2e+10 cfu/ml | no binding | 0.0013 µg/mL | ~5000 fold
3 | B3 | 6.4 µg/mL | – | – | – | – | – | – | – | –
